Reference: patent publication US20110091450

Target: mouse MBL (mannose-binding lectin of mouse serum, bound to mannan)

B1: recombinant mouse MASP-2 (rMASP-2) (protein)
chain: TLLGSKWPEPVFGRLVSPGFPEKYADHQDRSWTLTAPPGYRLRLYFTHFDLELSYRCEYDFVKLSSGTKVLATLCGQESTDTEQAPGNDTFYSLGPSLKVTFHSDYSNEKPFTGFEAFYAAEDVDECRVSLGDSVPCDHYCHNYLGGYYCSCRAGYILHQNKHTCSALCSGQVFTGRSGYLSSPEYPQPYPKLSSCTYSIRLEDGFSVILDFVESFDVETHPEAQCPYDSLKIQTDKGEHGPFCGKTLPPRIETDSHKVTITFATDESGNHTGWKIHYTSTARPCPDPTAPPNGSISPVQATYVLKDRFSVFCKTGFELLQGSVPLKSFTAVCQKDGSWDRPMPECSIIDCGPPDDLPNGHVDYITGPQVTTYKAVIQYSCEETFYTMSSNGKYVCEADGFWTSSKGEKLPPVCEPVCGLSTHTIGGRIVGGQPAKPGDFPWQVLLLGQTTAAAGALIHDNWVLTAAHAVYEKRMAASSLNIRMGILKRLSPHYTQAWPEEIFIHEGYTHGAGFDNDIALIKLKNKVTINGSIMPVCLPRKEAASLMRTDFTGTVAGWGLTQKGLLARNLMFVDIPIADHQKCTTVYEKLYPGVRVSANMLCAGLETGGKDSCRGDSGGALVFLDNETQRWFVGGIVSWGSINCGAAGQYGVYTKVINYIPWNENIISNF
C4 deposition on mannan-coated wells (sMAP-/- mouse serum): the amount of C4 was restored by up to 46% of that of wild-type serum in a dose-dependent manner and reached a plateau (FIG. 25B)
